Measured values: article PMC12506513, “Conformational dynamics of the bacterial E3 ligase SspH1” (The Journal of Biological Chemistry, 2025)
Changes are numbered by the printed parent chain. In names and notes the source's numbering stands.

T1: full-length SspH1 (1 to 700) (Salmonella, UniProt D0ZVG2 1-700)
T1 construct: also called FL SspH1; FL protein; source: E. coli BL21 Gold, purified (nickel-nitrilotriacetic acid resin, 3C protease, gel filtration)
T1 sequence: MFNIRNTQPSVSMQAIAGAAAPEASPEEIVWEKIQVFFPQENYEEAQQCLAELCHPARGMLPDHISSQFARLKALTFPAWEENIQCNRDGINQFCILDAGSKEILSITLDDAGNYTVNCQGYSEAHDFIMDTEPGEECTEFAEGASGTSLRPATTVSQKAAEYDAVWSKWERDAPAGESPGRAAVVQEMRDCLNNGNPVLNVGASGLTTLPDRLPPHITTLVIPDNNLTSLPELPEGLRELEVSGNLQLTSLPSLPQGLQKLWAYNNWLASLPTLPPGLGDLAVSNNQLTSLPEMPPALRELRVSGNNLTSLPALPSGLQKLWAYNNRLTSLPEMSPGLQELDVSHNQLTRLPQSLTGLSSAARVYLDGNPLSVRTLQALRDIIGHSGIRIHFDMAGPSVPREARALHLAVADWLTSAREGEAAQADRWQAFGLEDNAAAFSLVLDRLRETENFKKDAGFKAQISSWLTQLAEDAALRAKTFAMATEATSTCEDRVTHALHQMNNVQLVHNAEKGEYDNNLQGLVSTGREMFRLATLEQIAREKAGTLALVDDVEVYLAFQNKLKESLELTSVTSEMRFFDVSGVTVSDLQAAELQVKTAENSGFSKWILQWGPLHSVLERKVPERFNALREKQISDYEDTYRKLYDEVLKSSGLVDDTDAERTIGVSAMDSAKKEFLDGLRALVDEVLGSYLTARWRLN

B1: PKN1 HR1b domain (residues 122-199) (domain or fragment)
chain: not shown
notes: also called HR1b PKN1; substrate PKN1; source: E. coli BL21 Gold, purified (nickel-nitrilotriacetic acid resin, 3C protease, gel filtration)
B2: ΔNSspH1 (161-700) (domain or fragment)
chain: AEYDAVWSKWERDAPAGESPGRAAVVQEMRDCLNNGNPVLNVGASGLTTLPDRLPPHITTLVIPDNNLTSLPELPEGLRELEVSGNLQLTSLPSLPQGLQKLWAYNNWLASLPTLPPGLGDLAVSNNQLTSLPEMPPALRELRVSGNNLTSLPALPSGLQKLWAYNNRLTSLPEMSPGLQELDVSHNQLTRLPQSLTGLSSAARVYLDGNPLSVRTLQALRDIIGHSGIRIHFDMAGPSVPREARALHLAVADWLTSAREGEAAQADRWQAFGLEDNAAAFSLVLDRLRETENFKKDAGFKAQISSWLTQLAEDAALRAKTFAMATEATSTCEDRVTHALHQMNNVQLVHNAEKGEYDNNLQGLVSTGREMFRLATLEQIAREKAGTLALVDDVEVYLAFQNKLKESLELTSVTSEMRFFDVSGVTVSDLQAAELQVKTAENSGFSKWILQWGPLHSVLERKVPERFNALREKQISDYEDTYRKLYDEVLKSSGLVDDTDAERTIGVSAMDSAKKEFLDGLRALVDEVLGSYLTARWRLN
notes: also called WT SspH1; source: E. coli BL21 Gold, purified (nickel-nitrilotriacetic acid resin, 3C protease, gel filtration)
B3: E487R SspH1 (domain or fragment)
chain: B2 chain with E327R
notes: also called E487R mutant; source: E. coli BL21 Gold, purified (nickel-nitrilotriacetic acid resin, 3C protease, gel filtration)
B4: SspH1 NEL domain (405 to 700) (domain or fragment)
chain: RALHLAVADWLTSAREGEAAQADRWQAFGLEDNAAAFSLVLDRLRETENFKKDAGFKAQISSWLTQLAEDAALRAKTFAMATEATSTCEDRVTHALHQMNNVQLVHNAEKGEYDNNLQGLVSTGREMFRLATLEQIAREKAGTLALVDDVEVYLAFQNKLKESLELTSVTSEMRFFDVSGVTVSDLQAAELQVKTAENSGFSKWILQWGPLHSVLERKVPERFNALREKQISDYEDTYRKLYDEVLKSSGLVDDTDAERTIGVSAMDSAKKEFLDGLRALVDEVLGSYLTARWRLN
notes: also called isolated NEL domain; source: E. coli BL21 Gold, purified (nickel-nitrilotriacetic acid resin, 3C protease, gel filtration)

Assays:
Settings in all cases: both partners purified
[1] = biological target: T1, full-length SspH1 (1 to 700); experiment: SEC-MALS; SEC-MALLS of FL SspH1 and ΔNSspH1 alone and with the substrate PKN1; in the range of concentrations explored
ΔNSspH1 (161-700) = biological target: B2; experiment: as above
15N-labeled ubiquitin = biological target: T2, 15N-labeled ubiquitin (UniProt P0CG48 1-76, 15N isotope-enriched); experiment: NMR titration; 15N-Ub titrated with SspH1 constructs; 1H-15N HSQC, 800 MHz; chemical shift perturbations and line broadening of Ub backbone amides
T2 construct: also called 15N-Ub; free Ub

Binder | stoichiometry N [1] | stoichiometry N (ΔNSspH1 (161-700)) | binding result (15N-labeled ubiquitin)
B1 | 1 | 1 | –
B2 | – | – | binds
B3 | – | – | binds
B4 | – | – | binds
